Measured values: patent US20240209076A1 (KODIAK SCIENCES, published 2024)
Substitutions are numbered along the chain they refer to. Names may count otherwise.

Columns and labels:
[1] = target: recombinant human IL-6 (human, UniProt P05231 30-212); assay: SPR, IL-6 on CM5 chip, Fab lysate, 25 C
Target sequence in this assay (P05231 30-212 limits assumed): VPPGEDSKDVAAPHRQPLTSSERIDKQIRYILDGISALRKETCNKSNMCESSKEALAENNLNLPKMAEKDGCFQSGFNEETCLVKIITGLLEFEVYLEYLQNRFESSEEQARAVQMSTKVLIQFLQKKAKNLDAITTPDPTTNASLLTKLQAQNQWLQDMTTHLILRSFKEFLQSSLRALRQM

[2] = target: T1, recombinant human IL-6 (human, UniProt P05231 30-212); assay: SPR Biacore, supernatant Ab on Protein A chip, IL-6 analyte, 25 C
T1 construct: Bought protein
Procedure: Antibodies were captured on a Protein A chip (GE) by injecting 1:20 dilution of cell supernatant at 10 μL/min for 60 seconds. […] The sensor chip was regenerated by a 60 seconds injection of 10 mM Glycine pH 1.7 at flow rate of 50 μL/min. […] For this setup, 1 μg/mL of purified antibody was injected over a Protein A chip at 10 μL/min for 25-28 seconds. Data analysis for supernatant and purified samples were performed using BIAevaluation software (GE). All sensorgrams were double reference subtracted and fit using a 1:1 Langmuir binding model.
T1 sequence (P05231 30-212 limits assumed): as above

B1: anti-IL-6 Fab, heavy chain Y104V (Fab, V domains shown)
VH: EVQLVESGGGLVQPGGSLRLSCAASGFTFSPFAMSWVRQAPGKGLEWVAKISPGGSWTYYSDTVTGRFTFSLDTSKSTAYLQMNSLRAEDTAVYYCARQLWGYVALDIWGQGTLVTVSS
VL: DIQLTQSPSSLSASVGDRVTITCSASISVSYMYWYQQKPGKAPKLLIYDMSNLASGVPSRFSGSGSGTDFTLTISSLQPEDFATYYCMQWSGYPYTFGQGTKVEIK
B1 showed a koff [1] of 0.00381 s⁻¹.

B2: anti-IL-6 Fab, heavy chain Q99H (Fab, V domains shown)
VH: B1 VH with Q99H, V104Y
VL: B1 VL
B2 was tested, and the koff [1] was 0.00441 s⁻¹.

B3: anti-IL-6 Fab, heavy chain A105Q (Fab, V domains shown)
VH: B1 VH with V104Y, A105Q
VL: B1 VL
In the case of B3, the koff [1] is reported as 0.00401 s⁻¹.

B4: anti-IL-6 Fab, heavy chain Y103E (Fab, V domains shown)
VH: B1 VH with Y103E, V104Y
VL: B1 VL
With B4 the koff [1] was 0.00512 s⁻¹.

B5: anti-IL-6 Fab, heavy chain Y103S (Fab, V domains shown)
VH: B1 VH with Y103S, V104Y
VL: B1 VL
For B5, the koff [1] was 0.00502 s⁻¹.

B6: anti-IL-6 Fab, heavy chain Q99A (Fab, V domains shown)
VH: B1 VH with Q99A, V104Y
VL: B1 VL
With B6 the koff [1] was 0.00388 s⁻¹.

B7: anti-IL-6 Fab, heavy chain L100K (Fab, V domains shown)
VH: B1 VH with L100K, V104Y
VL: B1 VL
B7 gave a koff [1] of 0.00287 s⁻¹.

B8: anti-IL-6 Fab, heavy chain D107E (Fab, V domains shown)
VH: B1 VH with V104Y, D107E
VL: B1 VL
B8 gave a koff [1] of 0.00438 s⁻¹.

B9: anti-IL-6 Fab, heavy chain I108S (Fab, V domains shown)
VH: B1 VH with V104Y, I108S
VL: B1 VL
For B9, the koff [1] was 0.00352 s⁻¹.

B10: anti-IL-6 Fab, heavy chain G102D (Fab, V domains shown)
VH: B1 VH with G102D, V104Y
VL: B1 VL
Work on B10 yielded a koff [1] of 0.00389 s⁻¹.

B11: anti-IL-6 Fab, heavy chain I108E (Fab, V domains shown)
VH: B1 VH with V104Y, I108E
VL: B1 VL
B11 gave a koff [1] of 0.00308 s⁻¹.

B12: anti-IL-6 antibody, light chain S55Y (heavy chain WT) (antibody, V domains shown)
VH: B1 VH with V104Y
VL: B1 VL with S55Y
notes: See note of m2; also called WT / S55Y
Binder B12 has a Kd [2] of 0.461 nM, a koff [2] of 0.000201 s⁻¹ and a kon [2] of 436000 M⁻¹ s⁻¹.

B13: anti-IL-6 antibody, light chain S51R (heavy chain WT) (antibody, V domains shown)
VH: B1 VH with V104Y
VL: B1 VL with S51R
notes: See note of m2; also called WT / S51R
In the case of B13, the Kd [2] is reported as 0.463 nM, the koff [2] is reported as 0.000231 s⁻¹ and the kon [2] is reported as 499000 M⁻¹ s⁻¹.

B14: anti-IL-6 antibody, light chain N52S (heavy chain WT) (antibody, V domains shown)
VH: B1 VH with V104Y
VL: B1 VL with N52S
notes: See note of m2; also called WT / N52S
Binder B14 has a Kd [2] of 0.353 nM, a koff [2] of 0.000152 s⁻¹ and a kon [2] of 430000 M⁻¹ s⁻¹.

B15: anti-IL-6 antibody, light chain Y48W (heavy chain WT) (antibody, V domains shown)
VH: B1 VH with V104Y
VL: B1 VL with Y48W
notes: See note of m2; also called WT / Y48W
Binder B15 has a Kd [2] of 0.356 nM, a koff [2] of 0.000123 s⁻¹ and a kon [2] of 345000 M⁻¹ s⁻¹.

B16: anti-IL-6 antibody, light chain V29L (heavy chain WT) (antibody, V domains shown)
VH: B1 VH with V104Y
VL: B1 VL with V29L
notes: See note of m2; also called WT / V29L
B16 showed a Kd [2] of 0.487 nM, a koff [2] of 0.000171 s⁻¹ and a kon [2] of 351000 M⁻¹ s⁻¹.

B17: anti-IL-6 antibody, light chain S30G (heavy chain WT) (antibody, V domains shown)
VH: B1 VH with V104Y
VL: B1 VL with S30G
notes: See note of m2; also called WT / S30G
In the case of B17, the Kd [2] is reported as 0.316 nM, the koff [2] is reported as 0.000173 s⁻¹ and the kon [2] is reported as 548000 M⁻¹ s⁻¹.

B18: anti-IL-6 antibody, light chain L46V (heavy chain WT) (antibody, V domains shown)
VH: B1 VH with V104Y
VL: B1 VL with L46V
notes: See note of m2; also called WT / L46V
Work on B18 yielded a Kd [2] of 0.442 nM, a koff [2] of 0.000203 s⁻¹ and a kon [2] of 460000 M⁻¹ s⁻¹.

B19: anti-IL-6 antibody, light chain A54G (heavy chain WT) (antibody, V domains shown)
VH: B1 VH with V104Y
VL: B1 VL with A54G
notes: See note of m2; also called WT / A54G
B19 showed a Kd [2] of 0.416 nM, a koff [2] of 0.000198 s⁻¹ and a kon [2] of 475000 M⁻¹ s⁻¹.

B20: anti-IL-6 antibody, light chain S55R (heavy chain WT) (antibody, V domains shown)
VH: B1 VH with V104Y
VL: B1 VL with S55R
notes: See note of m2; also called WT / S55R
In the case of B20, the Kd [2] is reported as 0.109 nM, the koff [2] is reported as 0.000107 s⁻¹ and the kon [2] is reported as 987000 M⁻¹ s⁻¹.

B21: anti-IL-6 antibody, light chain A54Y (heavy chain WT) (antibody, V domains shown)
VH: B1 VH with V104Y
VL: B1 VL with A54Y
notes: See note of m2; also called WT / A54Y
B21 showed a Kd [2] of 0.168 nM, a koff [2] of 0.000109 s⁻¹ and a kon [2] of 652000 M⁻¹ s⁻¹.

B22: anti-IL-6 antibody, light chain S55L (heavy chain WT) (antibody, V domains shown)
VH: B1 VH with V104Y
VL: B1 VL with S55L
notes: See note of m2; also called WT / S55L
Binder B22 has a Kd [2] of 0.329 nM, a koff [2] of 0.00022 s⁻¹ and a kon [2] of 668000 M⁻¹ s⁻¹.

B23: anti-IL-6 antibody, light chain Q89A (heavy chain WT) (antibody, V domains shown)
VH: B1 VH with V104Y
VL: B1 VL with Q89A
notes: See note of m2; also called WT / Q89A
In the case of B23, the Kd [2] is reported as 0.419 nM, the koff [2] is reported as 0.000227 s⁻¹ and the kon [2] is reported as 543000 M⁻¹ s⁻¹.

B24: anti-IL-6 antibody, light chain Y95G (heavy chain WT) (antibody, V domains shown)
VH: B1 VH with V104Y
VL: B1 VL with Y95G
notes: See note of m2; also called WT / Y95G
B24 gave a Kd [2] of 0.383 nM, a koff [2] of 0.000338 s⁻¹ and a kon [2] of 882000 M⁻¹ s⁻¹.

B25: anti-IL-6 antibody, light chain Y95I (heavy chain WT) (antibody, V domains shown)
VH: B1 VH with V104Y
VL: B1 VL with Y95I
notes: See note of m2; also called WT / Y95I
B25 was tested, and the Kd [2] was 7.48 nM, the koff [2] was 0.00444 s⁻¹ and the kon [2] was 593000 M⁻¹ s⁻¹.

B26: anti-IL-6 antibody, light chain Y31F (heavy chain WT) (antibody, V domains shown)
VH: B1 VH with V104Y
VL: B1 VL with Y31F
notes: See note of m2; also called WT / Y31F
Work on B26 yielded a Kd [2] of 0.472 nM, a koff [2] of 0.000138 s⁻¹ and a kon [2] of 292000 M⁻¹ s⁻¹.

B27: anti-IL-6 antibody, light chain I47V (heavy chain WT) (antibody, V domains shown)
VH: B1 VH with V104Y
VL: B1 VL with I47V
notes: See note of m2; also called WT / 147V
With B27 the Kd [2] was 0.414 nM, the koff [2] was 0.000195 s⁻¹ and the kon [2] was 471000 M⁻¹ s⁻¹.

B28: anti-IL-6 antibody, light chain S91A (heavy chain WT) (antibody, V domains shown)
VH: B1 VH with V104Y
VL: B1 VL with S91A
notes: See note of m2; also called WT / S91A
Work on B28 yielded a Kd [2] of 0.407 nM, a koff [2] of 0.000139 s⁻¹ and a kon [2] of 341000 M⁻¹ s⁻¹.

B29: anti-IL-6 antibody, light chain A54L (heavy chain WT) (antibody, V domains shown)
VH: B1 VH with V104Y
VL: B1 VL with A54L
notes: See note of m2; also called WT / A54L
B29 showed a Kd [2] of 0.499 nM, a koff [2] of 0.00021 s⁻¹ and a kon [2] of 420000 M⁻¹ s⁻¹.

B30: anti-IL-6 antibody, light chain S51K (heavy chain WT) (antibody, V domains shown)
VH: B1 VH with V104Y
VL: B1 VL with S51K
notes: See note of m2; also called WT / S51K
With B30 the Kd [2] was 0.535 nM, the koff [2] was 0.000212 s⁻¹ and the kon [2] was 396000 M⁻¹ s⁻¹.

B31: anti-IL-6 antibody, light chain L53H (heavy chain WT) (antibody, V domains shown)
VH: B1 VH with V104Y
VL: B1 VL with L53H
notes: See note of m2; also called WT / L53H
With B31 the Kd [2] was 0.401 nM, the koff [2] was 0.000218 s⁻¹ and the kon [2] was 544000 M⁻¹ s⁻¹.

B32: anti-IL-6 antibody, light chain Y31G (heavy chain WT) (antibody, V domains shown)
VH: B1 VH with V104Y
VL: B1 VL with Y31G
notes: See note of m2; also called WT / Y31G
For B32, the Kd [2] was 0.666 nM, the koff [2] was 0.000203 s⁻¹ and the kon [2] was 305000 M⁻¹ s⁻¹.

B33: anti-IL-6 antibody, light chain L53R (heavy chain WT) (antibody, V domains shown)
VH: B1 VH with V104Y
VL: B1 VL with L53R
notes: See note of m2; also called WT / L53R
In the case of B33, the Kd [2] is reported as 0.446 nM, the koff [2] is reported as 0.000185 s⁻¹ and the kon [2] is reported as 416000 M⁻¹ s⁻¹.

B34: anti-IL-6 antibody, light chain S55W (heavy chain WT) (antibody, V domains shown)
VH: B1 VH with V104Y
VL: B1 VL with S55W
notes: See note of m2; also called WT / S55W
In the case of B34, the Kd [2] is reported as 0.401 nM, the koff [2] is reported as 0.000226 s⁻¹ and the kon [2] is reported as 563000 M⁻¹ s⁻¹.

B35: anti-IL-6 antibody, light chain S51D (heavy chain WT) (antibody, V domains shown)
VH: B1 VH with V104Y
VL: B1 VL with S51D
notes: See note of m2; also called WT / S51D
B35 gave a Kd [2] of 0.296 nM, a koff [2] of 0.000216 s⁻¹ and a kon [2] of 729000 M⁻¹ s⁻¹.

B36: anti-IL-6 antibody, light chain S30A (heavy chain WT) (antibody, V domains shown)
VH: B1 VH with V104Y
VL: B1 VL with S30A
notes: See note of m2; also called WT / S30A
For B36, the Kd [2] was 0.639 nM, the koff [2] was 0.000163 s⁻¹ and the kon [2] was 255000 M⁻¹ s⁻¹.

B37: anti-IL-6 antibody, light chain Q89S (heavy chain WT) (antibody, V domains shown)
VH: B1 VH with V104Y
VL: B1 VL with Q89S
notes: See note of m2; also called WT / Q89S
B37 gave a Kd [2] of 0.752 nM, a koff [2] of 0.000272 s⁻¹ and a kon [2] of 362000 M⁻¹ s⁻¹.

B38: anti-IL-6 antibody, light chain L53W (heavy chain WT) (antibody, V domains shown)
VH: B1 VH with V104Y
VL: B1 VL with L53W
notes: See note of m2; also called WT / L53W
Work on B38 yielded a Kd [2] of 0.00518 nM, a koff [2] of 6.14e-06 s⁻¹ and a kon [2] of 1.19e+06 M⁻¹ s⁻¹.
